{
  "source": "patent US20030186329",
  "key": {"[1]": {"target": "fusion of maltose binding protein, QRGRSA and the HY4 gene product of Arabidopsis thaliana (UniProt Q43125)", "sequence (Q43125 other isoform, or with tags, fused parts or gaps)": "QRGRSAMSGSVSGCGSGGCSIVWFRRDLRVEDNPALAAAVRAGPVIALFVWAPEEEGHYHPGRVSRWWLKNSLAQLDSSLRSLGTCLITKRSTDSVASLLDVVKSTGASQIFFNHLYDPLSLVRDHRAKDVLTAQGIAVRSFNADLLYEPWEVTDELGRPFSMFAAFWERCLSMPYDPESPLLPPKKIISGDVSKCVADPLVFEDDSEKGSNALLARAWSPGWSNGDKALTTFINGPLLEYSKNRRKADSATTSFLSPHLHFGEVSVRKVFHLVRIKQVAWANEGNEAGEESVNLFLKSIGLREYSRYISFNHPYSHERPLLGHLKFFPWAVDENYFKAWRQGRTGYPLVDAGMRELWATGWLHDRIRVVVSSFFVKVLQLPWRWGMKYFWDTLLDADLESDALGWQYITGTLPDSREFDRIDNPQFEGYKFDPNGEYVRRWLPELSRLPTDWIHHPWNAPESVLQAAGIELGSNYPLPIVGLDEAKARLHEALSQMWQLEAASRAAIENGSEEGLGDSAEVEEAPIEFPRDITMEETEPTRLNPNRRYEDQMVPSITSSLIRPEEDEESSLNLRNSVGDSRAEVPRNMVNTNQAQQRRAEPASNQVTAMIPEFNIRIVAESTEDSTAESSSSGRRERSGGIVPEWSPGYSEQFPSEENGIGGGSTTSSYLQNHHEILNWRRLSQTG"}, "[2]": {"system": "T1, peptide (I), native cleavage sequence from plasminogen", "T1 sequence": "KKSPGRVVGGSVAH"}, "[3]": {"system": "T2, peptide (II) of Table 1, LGGSGQRGRKALE", "T2 sequence": "LGGSGQRGRKALE"}, "[4]": {"system": "T3, peptide (III) of Table 1, LGGSGERARGALE", "T3 sequence": "LGGSGERARGALE"}, "[5]": {"system": "T4, peptide (IV) of Table 1, LGGSGHYGRSGLE", "T4 sequence": "LGGSGHYGRSGLE"}, "[6]": {"system": "T5, peptide (V) of Table 1, YGRS", "T5 sequence": "YGRS"}, "[7]": {"system": "T6, peptide (VI) of Table 1, RGRK", "T6 sequence": "RGRK"}, "[8]": {"system": "T7, peptide (VII) of Table 1, FRGRK", "T7 sequence": "FRGRK"}, "[9]": {"system": "T8, peptide GSGKS", "T8 sequence": "GSGKS"}, "[10]": {"system": "T9, peptide LGGRGRSANAILE", "T9 sequence": "LGGRGRSANAILE"}, "[11]": {"system": "T10, peptide LGGSGRKASLSLE", "T10 sequence": "LGGSGRKASLSLE"}, "[12]": {"system": "T11, peptide LGGSGRNAQVRLE", "T11 sequence": "LGGSGRNAQVRLE"}, "[13]": {"system": "T12, peptide LGGSGRSANAILE", "T12 sequence": "LGGSGRSANAILE"}, "[14]": {"system": "T13, peptide LGGSGRSATRDLE", "T13 sequence": "LGGSGRSATRDLE"}, "[15]": {"system": "T14, peptide LGGYGRSANAILE", "T14 sequence": "LGGYGRSANAILE"}, "[16]": {"system": "T15, peptide LGQRGRSANAILE", "T15 sequence": "LGQRGRSANAILE"}, "[17]": {"system": "T16, peptide SGKS", "T16 sequence": "SGKS"}, "[18]": {"system": "T17, peptide SGRSA", "T17 sequence": "SGRSA"}, "[19]": {"system": "T18, peptide SGRS", "T18 sequence": "SGRS"}, "[20]": {"system": "phage 33, displaying hexamer RSANAI"}, "[21]": {"system": "phage clone 34, displaying hexamer RNAQVR"}, "[22]": {"system": "phage clone 35, displaying hexamer RSATRD"}, "[23]": {"system": "phage clone 36, displaying hexamer RSAKVD"}, "[24]": {"system": "phage clone 37, displaying hexamer RKASLS"}, "[25]": {"system": "phage clone 38, displaying hexamer RRAVSN"}, "[26]": {"system": "phage clone 39, displaying hexamer RSAVVK"}, "[27]": {"system": "phage clone 40, displaying hexamer RSSSSH"}, "[28]": {"system": "T12, peptide LGGSGRSANAILE", "assay": "kinetics of peptide hydrolysis by u-PA, HPLC, Eadie-Hofstee"}, "[29]": {"system": "T1, peptide (I), native cleavage sequence from plasminogen", "assay": "kinetics of peptide hydrolysis by the enzyme, HPLC, Eadie-Hofstee"}, "[30]": {"system": "T2, peptide (II) of Table 1, LGGSGQRGRKALE", "assay": "kinetics of peptide hydrolysis by the enzyme, HPLC, Eadie-Hofstee"}, "[31]": {"system": "T3, peptide (III) of Table 1, LGGSGERARGALE", "assay": "kinetics of peptide hydrolysis by the enzyme, HPLC, Eadie-Hofstee"}, "[32]": {"system": "T4, peptide (IV) of Table 1, LGGSGHYGRSGLE", "assay": "kinetics of peptide hydrolysis by the enzyme, HPLC, Eadie-Hofstee"}, "[33]": {"system": "T9, peptide LGGRGRSANAILE", "assay": "kinetics of peptide hydrolysis by the enzyme, HPLC, Eadie-Hofstee"}, "[34]": {"system": "T10, peptide LGGSGRKASLSLE", "assay": "kinetics of peptide hydrolysis by the enzyme, HPLC, Eadie-Hofstee"}, "[35]": {"system": "T11, peptide LGGSGRNAQVRLE", "assay": "kinetics of peptide hydrolysis by the enzyme, HPLC, Eadie-Hofstee"}, "[36]": {"system": "T12, peptide LGGSGRSANAILE", "assay": "kinetics of peptide hydrolysis by the enzyme, HPLC, Eadie-Hofstee"}, "[37]": {"system": "T13, peptide LGGSGRSATRDLE", "assay": "kinetics of peptide hydrolysis by the enzyme, HPLC, Eadie-Hofstee"}, "[38]": {"system": "T14, peptide LGGYGRSANAILE", "assay": "kinetics of peptide hydrolysis by the enzyme, HPLC, Eadie-Hofstee"}, "[39]": {"system": "T15, peptide LGQRGRSANAILE", "assay": "kinetics of peptide hydrolysis by the enzyme, HPLC, Eadie-Hofstee"}, "[40]": {"system": "T5, peptide (V) of Table 1, YGRS", "assay": "kinetics of peptide hydrolysis by the enzyme, HILIC HPLC, Eadie-Hofstee"}, "[41]": {"system": "T6, peptide (VI) of Table 1, RGRK", "assay": "kinetics of peptide hydrolysis by the enzyme, HILIC HPLC, Eadie-Hofstee"}, "[42]": {"system": "T7, peptide (VII) of Table 1, FRGRK", "assay": "kinetics of peptide hydrolysis by the enzyme, HILIC HPLC, Eadie-Hofstee"}, "[43]": {"system": "T8, peptide GSGKS", "assay": "kinetics of peptide hydrolysis by the enzyme, HILIC HPLC, Eadie-Hofstee"}, "[44]": {"system": "T16, peptide SGKS", "assay": "kinetics of peptide hydrolysis by the enzyme, HILIC HPLC, Eadie-Hofstee"}, "[45]": {"system": "T17, peptide SGRSA", "assay": "kinetics of peptide hydrolysis by the enzyme, HILIC HPLC, Eadie-Hofstee"}, "[46]": {"system": "T18, peptide SGRS", "assay": "kinetics of peptide hydrolysis by the enzyme, HILIC HPLC, Eadie-Hofstee"}},
  "data": [
    {"substance": "urokinase-type plasminogen activator (u-PA)", "values": [
      {"measurement": "cleavage of fusion protein, SDS-PAGE", "setting": "[1]", "value": "whereas u-PA did not"},
      {"measurement": "kcat", "setting": "[2]", "value": 0.003, "unit": "s⁻¹"},
      {"measurement": "kcat/Km", "setting": "[2]", "value": 0.88, "unit": "M⁻¹ s⁻¹"},
      {"measurement": "kcat", "setting": "[3]", "value": 0.02, "unit": "s⁻¹"},
      {"measurement": "kcat/Km", "setting": "[3]", "value": 9.2, "unit": "M⁻¹ s⁻¹"},
      {"measurement": "kcat", "setting": "[4]", "value": 0.004, "unit": "s⁻¹"},
      {"measurement": "kcat/Km", "setting": "[4]", "value": 4, "unit": "M⁻¹ s⁻¹"},
      {"measurement": "kcat", "setting": "[5]", "value": 0.059, "unit": "s⁻¹"},
      {"measurement": "kcat/Km", "setting": "[5]", "value": 15, "unit": "M⁻¹ s⁻¹"},
      {"measurement": "kcat", "setting": "[6]", "value": 2.6, "unit": "s⁻¹"},
      {"measurement": "kcat/Km", "setting": "[6]", "value": 230, "unit": "M⁻¹ s⁻¹"},
      {"measurement": "kcat", "setting": "[7]", "value": 0.76, "unit": "s⁻¹"},
      {"measurement": "kcat/Km", "setting": "[7]", "value": 16, "unit": "M⁻¹ s⁻¹"},
      {"measurement": "kcat", "setting": "[8]", "value": 0.14, "unit": "s⁻¹"},
      {"measurement": "kcat/Km", "setting": "[8]", "value": 16, "unit": "M⁻¹ s⁻¹"},
      {"measurement": "kcat", "setting": "[9]", "value": 0.82, "unit": "s⁻¹"},
      {"measurement": "kcat/Km", "setting": "[9]", "value": 193, "unit": "M⁻¹ s⁻¹"},
      {"measurement": "kcat", "setting": "[10]", "value": 0.08, "unit": "s⁻¹"},
      {"measurement": "kcat/Km", "setting": "[10]", "value": 67, "unit": "M⁻¹ s⁻¹"},
      {"measurement": "kcat", "setting": "[11]", "value": 1.14, "unit": "s⁻¹"},
      {"measurement": "kcat/Km", "setting": "[11]", "value": 1010, "unit": "M⁻¹ s⁻¹"},
      {"measurement": "kcat", "setting": "[12]", "value": 3.69, "unit": "s⁻¹"},
      {"measurement": "kcat/Km", "setting": "[12]", "value": 3200, "unit": "M⁻¹ s⁻¹"},
      {"measurement": "fold improvement as substrate against control peptide (I)", "setting": "[13]", "value": "by factors of 840-5300"},
      {"measurement": "fold increase of kcat against control peptide (I)", "setting": "[13]", "value": "increased by a factor of more than 940"},
      {"measurement": "kcat", "setting": "[13]", "value": 2.83, "unit": "s⁻¹"},
      {"measurement": "kcat/Km", "setting": "[13]", "value": 4700, "unit": "M⁻¹ s⁻¹"},
      {"measurement": "fold improvement as substrate against control peptide (I)", "setting": "[14]", "value": "by factors of 840-5300"},
      {"measurement": "kcat", "setting": "[14]", "value": 0.54, "unit": "s⁻¹"},
      {"measurement": "kcat/Km", "setting": "[14]", "value": 740, "unit": "M⁻¹ s⁻¹"},
      {"measurement": "kcat", "setting": "[15]", "value": 0.7, "unit": "s⁻¹"},
      {"measurement": "kcat/Km", "setting": "[15]", "value": 318, "unit": "M⁻¹ s⁻¹"},
      {"measurement": "kcat", "setting": "[16]", "value": 0.068, "unit": "s⁻¹"},
      {"measurement": "kcat/Km", "setting": "[16]", "value": 45, "unit": "M⁻¹ s⁻¹"},
      {"measurement": "fold decrease of catalytic efficiency against peptide (VI) SGRS", "setting": "[17]", "value": "by a factor of 7 for u-PA"},
      {"measurement": "kcat", "setting": "[17]", "value": 1.22, "unit": "s⁻¹"},
      {"measurement": "kcat/Km", "setting": "[17]", "value": 154, "unit": "M⁻¹ s⁻¹"},
      {"measurement": "kcat", "setting": "[18]", "value": 3.7, "unit": "s⁻¹"},
      {"measurement": "kcat/Km", "setting": "[18]", "value": 1200, "unit": "M⁻¹ s⁻¹"},
      {"measurement": "kcat", "setting": "[19]", "value": 2.3, "unit": "s⁻¹"},
      {"measurement": "kcat/Km", "setting": "[19]", "value": 1100, "unit": "M⁻¹ s⁻¹"},
      {"measurement": "dot blot analysis under the most stringent conditions of digestion", "setting": "[20]", "value": "proved to be particularly labile u-PA substrates"},
      {"measurement": "dot blot analysis under the most stringent conditions of digestion", "setting": "[21]", "value": "proved to be particularly labile u-PA substrates"},
      {"measurement": "dot blot analysis under the most stringent conditions of digestion", "setting": "[22]", "value": "proved to be particularly labile u-PA substrates"},
      {"measurement": "dot blot analysis under the most stringent conditions of digestion", "setting": "[23]", "value": "proved to be particularly labile u-PA substrates"},
      {"measurement": "dot blot analysis under the most stringent conditions of digestion", "setting": "[24]", "value": "proved to be particularly labile u-PA substrates"},
      {"measurement": "dot blot analysis under the most stringent conditions of digestion", "setting": "[25]", "value": "proved to be particularly labile u-PA substrates"},
      {"measurement": "dot blot analysis under the most stringent conditions of digestion", "setting": "[26]", "value": "proved to be particularly labile u-PA substrates"},
      {"measurement": "dot blot analysis under the most stringent conditions of digestion", "setting": "[27]", "value": "proved to be particularly labile u-PA substrates"},
      {"measurement": "fold reduction of Km against control peptide (I)", "setting": "[28]", "value": "reduced by a factor of 5.6"},
      {"measurement": "Km", "setting": "[29]", "value": 3400, "unit": "µM"},
      {"measurement": "Km", "setting": "[30]", "value": 2180, "unit": "µM"},
      {"measurement": "Km", "setting": "[31]", "value": 970, "unit": "µM"},
      {"measurement": "Km", "setting": "[32]", "value": 3800, "unit": "µM"},
      {"measurement": "Km", "setting": "[33]", "value": 1200, "unit": "µM"},
      {"measurement": "Km", "setting": "[34]", "value": 1130, "unit": "µM"},
      {"measurement": "Km", "setting": "[35]", "value": 1160, "unit": "µM"},
      {"measurement": "Km", "setting": "[36]", "value": 603, "unit": "µM"},
      {"measurement": "Km", "setting": "[37]", "value": 733, "unit": "µM"},
      {"measurement": "Km", "setting": "[38]", "value": 2200, "unit": "µM"},
      {"measurement": "Km", "setting": "[39]", "value": 1500, "unit": "µM"},
      {"measurement": "Km", "setting": "[40]", "value": 11400, "unit": "µM"},
      {"measurement": "Km", "setting": "[41]", "value": 46500, "unit": "µM"},
      {"measurement": "Km", "setting": "[42]", "value": 8600, "unit": "µM"},
      {"measurement": "Km", "setting": "[43]", "value": 4250, "unit": "µM"},
      {"measurement": "Km", "setting": "[44]", "value": 7900, "unit": "µM"},
      {"measurement": "Km", "setting": "[45]", "value": 3100, "unit": "µM"},
      {"measurement": "Km", "setting": "[46]", "value": 2100, "unit": "µM"}
    ]}
  ]
}
